A word on the Kd: it is the free concentration of one partner at which half of the binding sites on the other are occupied at equilibrium, for simple one-to-one binding. Read a low Kd as tighter binding. For orientation: koff means the rate constant with which the complex falls apart. Low values mean slow dissociation, high ones fast dissociation. Broadly, the kon is a measure of how fast the partners come together. A higher kon goes with fast association.

The target of test [1] is SARS-CoV-2 Receptor Binding Domain (RBD) protein (SARS-CoV-2, UniProt P0DTC2 319-541).
Test [2] deals with T1, SARS-CoV-1 Receptor Binding Domain (RBD) protein (SARS-CoV-1, UniProt P59594 306-527).
T1 construct: also called SARS1
The experiment in a line: SPR; clone listed as COV2 only at the 21st table, row 58, column 3. (Surface plasmon resonance follows binding to a sensor surface in real time, without labels.)

Test [3] addresses T2, MERS Receptor Binding Domain (RBD) protein (MERS virus, UniProt K9N5Q8 367-606).
T2 construct: also called Middle East Respiratory Syndrome (MERS) virus
T2 sequence: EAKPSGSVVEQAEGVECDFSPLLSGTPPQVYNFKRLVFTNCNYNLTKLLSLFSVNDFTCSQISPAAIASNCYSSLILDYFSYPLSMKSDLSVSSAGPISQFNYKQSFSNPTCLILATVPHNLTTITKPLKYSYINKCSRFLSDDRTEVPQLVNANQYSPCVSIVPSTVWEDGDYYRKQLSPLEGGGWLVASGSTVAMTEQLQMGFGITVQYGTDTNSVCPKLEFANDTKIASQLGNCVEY
The description is as above.

In test [4] the target is T1, SARS-CoV-1 Receptor Binding Domain …. The experiment in a line: SPR; clone listed as COV2 only at the 21st table, row 65, column 3.
Test [5] concerns the target T2, MERS Receptor Binding Domain (RBD) …. The description is as above.
The target of test [6] is T1, SARS-CoV-1 Receptor Binding Domain …. Kind of test: SPR; clone listed as COV2 only at the 21st table, row 60, column 3.
Test [7] deals with T2, MERS Receptor Binding Domain (RBD) …. The description is as above.
Test [8] has as its target T1, SARS-CoV-1 Receptor Binding Domain …. Kind of test: SPR; clone listed as COV2 only at the 21st table, row 64, column 3.
The target in test [9] is T2, MERS Receptor Binding Domain (RBD) …. The description is as above.
The target of test [10] is T1, SARS-CoV-1 Receptor Binding Domain …. Kind of test: SPR; clone listed as COV2 only at the 21st table, row 63, column 3.
The target in test [11] is T2, MERS Receptor Binding Domain (RBD) …. The description is as above.
Test [12] has as its target T1, SARS-CoV-1 Receptor Binding Domain …. The experiment in a line: SPR; clone listed as COV2 only at the 21st table, row 59, column 3.
In test [13] the target is T2, MERS Receptor Binding Domain (RBD) …. The description is as above.
The target of test [14] is T1, SARS-CoV-1 Receptor Binding Domain …. Kind of test: SPR; clone listed as COV2 only at the 21st table, row 61, column 3.
Test [15] concerns the target T2, MERS Receptor Binding Domain (RBD) …. Described as above.

B1: COVID19_P09_B10 (scFv, V domains shown)
VH: QVQLVQSGAEVKKPGSSVKVSCKASGYSFTDYHIHWVRQAPGQGLEWMAMIVPRGGSTTYAQKFQGRVTITADESTSTAYMELSSLRSEDTAVYYCAGGSGISTPMDVWGQGTLVTVSS
VL: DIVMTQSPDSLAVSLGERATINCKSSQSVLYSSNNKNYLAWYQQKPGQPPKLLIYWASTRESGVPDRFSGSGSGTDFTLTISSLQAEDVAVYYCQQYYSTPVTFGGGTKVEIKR
For the molecule B1, in test [1], the Kd came to 39.7 nM, the koff came out at 0.00323 s⁻¹ and the kon was 81400 M⁻¹ s⁻¹. Further, in test [2], the binding result is given as “no binding (tested: up to 300 nM)”. For the same molecule, in test [3], the binding result was “no binding (tested: up to 300 nM)”.

B2: COVID19_P21_H03 (scFv, V domains shown)
VH: QVQLVQSGAEVKKPGSSVKVSCKASGYTFTNYGINWVRQAPGQGLEWMGWMNPYSGNTGYAQKFQGRVTITADESTSTAYMELSSLRSEDTAVYYCAVLSGISTPMDVWGQGTLVTVSS
VL: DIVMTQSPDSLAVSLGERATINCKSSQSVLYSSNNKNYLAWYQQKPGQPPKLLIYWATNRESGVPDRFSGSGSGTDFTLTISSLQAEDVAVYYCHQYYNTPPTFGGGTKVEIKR
In test [1], B2 registered a Kd of 11.6 nM, a koff of 0.00113 s⁻¹ and a kon of 97200 M⁻¹ s⁻¹. The binding result in [4] was “no binding (tested: up to 300 nM)”. The binding result in [5] is listed as “no binding (tested: up to 300 nM)”.

B3: COVID19_P10_A09 (scFv, V domains shown)
VH: QVQLVQSGAEVKKPGSSVKVSCKASGYTFTDYYIHWVRQAPGQGLEWMGWMNPNSGNTGYAQNFQGRVTITADESTSTAYMELSSLRSEDTAVYYCAGGSGISTAWDVWGQGTLVTVSS
VL: DIVMTQSPDSLAVSLGERATIRCTSSLSLQDRSNNKNYLTWYQQKPGQPPKLLIYWASTRESGVPDRFSGSGSGTDFTLTISSLQAEDVAVYYCQQHYSAPLTFGGGTKVEIKR
B3: in test [1], binding was characterised by a dissociation constant (Kd) of 20.5 nM, the koff was 0.00112 s⁻¹ and the kon came out at 54800 M⁻¹ s⁻¹. Moreover, the binding result in test [6] is “no binding (tested: up to 300 nM)”. Besides, the binding result in test [7] is “no binding (tested: up to 300 nM)”.

B4: COVID19_P21_E04 (scFv, V domains shown)
VH: QVQLVQSGAEVKKPGSSVKVSCKASGYTFTNYGINWMRQAPGQGLEWMGWMNPNSGNTGYAQKFQGRVTITADESTSTAYMELSSLRSEDTAVYYCAGGSGISTPMDVWGQGTLVTVSS
VL: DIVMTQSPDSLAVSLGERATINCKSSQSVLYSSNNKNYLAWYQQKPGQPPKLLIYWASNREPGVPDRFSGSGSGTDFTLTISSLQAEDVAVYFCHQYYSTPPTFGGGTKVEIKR
For the molecule B4, in test [1], the dissociation constant (Kd) came to 2.15 nM, the koff is 0.000588 s⁻¹ and the kon was determined as 273000 M⁻¹ s⁻¹. Moreover, the binding result in test [8] is given as “no binding (tested: up to 300 nM)”. In [9], the binding result is recorded as “no binding (tested: up to 300 nM)”.

B5: COVID19_P21_B02 (scFv, V domains shown)
VH: QVQLVQSGAEVKKPGSSVKVSCKASGYTFTNYGINWVRQAPGQGLEWMGWMNPNSGNTGYAQKFQGRVTITADESTSTAYMELSSLRSEDTAVYYCAAVSGISTPMDVWGQGTLVTVSS
VL: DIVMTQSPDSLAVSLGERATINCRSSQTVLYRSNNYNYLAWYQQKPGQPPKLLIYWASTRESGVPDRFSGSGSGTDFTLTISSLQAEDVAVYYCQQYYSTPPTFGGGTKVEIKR
In test [1], B5 returned a Kd of 45.5 nM, a koff of 0.0127 s⁻¹ and a kon of 278000 M⁻¹ s⁻¹. In [10], the binding result was “no binding (tested: up to 300 nM)”. In addition, in test [11], the binding result is “no binding (tested: up to 300 nM)”.

B6: COVID19_P21_B01 (scFv, V domains shown)
VH: QVQLVQSGAEVKKPGSSVKVSCKASGYTFSTYWIGWVRQAPGQGLEWMGWIDPNSGGTNYAQKFQGRVTITADESTSTAYMELSSLRSEDTAVYYCAGGSGISTPMDVWGQGTLVTVSS
VL: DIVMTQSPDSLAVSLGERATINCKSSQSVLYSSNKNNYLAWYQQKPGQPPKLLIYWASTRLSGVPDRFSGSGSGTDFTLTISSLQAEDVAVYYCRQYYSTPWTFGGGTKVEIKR
Consider B6, for which, in test [1], the dissociation constant Kd came to 0.91 nM, the koff was 5.7e-05 s⁻¹ and the kon was found to be 62400 M⁻¹ s⁻¹. Further, in [12], the binding result is recorded as “no binding (tested: up to 300 nM)”. Moreover, the binding result in test [13] is “no binding (tested: up to 300 nM)”.

B7: COVID19_P21_B09 (scFv, V domains shown)
VH: QVQLVQSGAEVKKPGSSVKVSCKASGYTFTGHYMHWVRQAPGQGLEWMGIIYPGDSEARYSQKFQGRVTITADESTSTAYMELSSLRSEDTAVYYCAGGSGISTPMDVWGQGTLVTVSS
VL: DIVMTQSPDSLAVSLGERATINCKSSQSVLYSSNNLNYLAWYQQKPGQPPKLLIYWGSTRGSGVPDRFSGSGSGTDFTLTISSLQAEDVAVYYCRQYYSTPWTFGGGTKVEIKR
For the molecule B7, in [1], the Kd came to 3.71 nM, the koff was 0.000207 s⁻¹ and the kon is 55900 M⁻¹ s⁻¹. In addition, the binding result in test [14] is on record as “no binding (tested: up to 300 nM)”. In addition, the binding result in test [15] is on record as “no binding (tested: up to 300 nM)”.

The values above are taken from US11034762 (CENTIVAX, dated 2021).
